Test results as given in patent US20230002496A1 (STAIDSON BEIJING BIOPHARMACEUTICALS, published 2023).

T1: human GM-CSFRα, full length on cells (human, UniProt P15509 23-400)
T1 sequence: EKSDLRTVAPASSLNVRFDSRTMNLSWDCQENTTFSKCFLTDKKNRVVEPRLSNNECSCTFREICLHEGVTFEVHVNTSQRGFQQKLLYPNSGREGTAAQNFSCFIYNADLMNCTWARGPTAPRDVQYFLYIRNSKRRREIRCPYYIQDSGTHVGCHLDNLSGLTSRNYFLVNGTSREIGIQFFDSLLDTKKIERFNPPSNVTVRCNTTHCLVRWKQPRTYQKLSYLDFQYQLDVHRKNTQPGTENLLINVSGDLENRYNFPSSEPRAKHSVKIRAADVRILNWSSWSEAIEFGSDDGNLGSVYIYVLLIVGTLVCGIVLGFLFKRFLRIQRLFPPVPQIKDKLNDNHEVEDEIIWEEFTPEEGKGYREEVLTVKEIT


molecular target: T1, human GM-CSFRα, full length on cells; assay: cell-based or functional assay

Binder	IC50, TF-1 cell proliferation [µg/mL]
E35-scFv LG50N (scFv, V domains shown) VH: QMQLVQSGAEVKKPGASVKVSCKVSGYTLTELSIHWVRQAPGKGLEWMGGFDPEDGETIYAQKFQGRVTMTGDTSTDTAYLELSSLRSEDTALYYCATGRYTSLATTYGFDYWGQGTLVTVSS VL: EIVMTQSPATLSLSPGERATLSCRASQSVSSYLAWYQQKPGQAPRLLIYNASSRATGIPDRFSGSGSGTDFTLTISRLEPEDFAVYYCQQYDNWPYTFGQGTKLEIK	1.59
E35-scFv LG50P (scFv, V domains shown) VH: QMQLVQSGAEVKKPGASVKVSCKVSGYTLTELSIHWVRQAPGKGLEWMGGFDPEDGETIYAQKFQGRVTMTGDTSTDTAYLELSSLRSEDTALYYCATGRYTSLATTYGFDYWGQGTLVTVSS VL: EIVMTQSPATLSLSPGERATLSCRASQSVSSYLAWYQQKPGQAPRLLIYPASSRATGIPDRFSGSGSGTDFTLTISRLEPEDFAVYYCQQYDNWPYTFGQGTKLEIK	1.86
E35-scFv LG50R (scFv, V domains shown) VH: QMQLVQSGAEVKKPGASVKVSCKVSGYTLTELSIHWVRQAPGKGLEWMGGFDPEDGETIYAQKFQGRVTMTGDTSTDTAYLELSSLRSEDTALYYCATGRYTSLATTYGFDYWGQGTLVTVSS VL: EIVMTQSPATLSLSPGERATLSCRASQSVSSYLAWYQQKPGQAPRLLIYRASSRATGIPDRFSGSGSGTDFTLTISRLEPEDFAVYYCQQYDNWPYTFGQGTKLEIK	2.79
E35-scFv LG50L (scFv, V domains shown) VH: QMQLVQSGAEVKKPGASVKVSCKVSGYTLTELSIHWVRQAPGKGLEWMGGFDPEDGETIYAQKFQGRVTMTGDTSTDTAYLELSSLRSEDTALYYCATGRYTSLATTYGFDYWGQGTLVTVSS VL: EIVMTQSPATLSLSPGERATLSCRASQSVSSYLAWYQQKPGQAPRLLIYLASSRATGIPDRFSGSGSGTDFTLTISRLEPEDFAVYYCQQYDNWPYTFGQGTKLEIK	3.9
E35-scFv LG50H (scFv, V domains shown) VH: QMQLVQSGAEVKKPGASVKVSCKVSGYTLTELSIHWVRQAPGKGLEWMGGFDPEDGETIYAQKFQGRVTMTGDTSTDTAYLELSSLRSEDTALYYCATGRYTSLATTYGFDYWGQGTLVTVSS VL: EIVMTQSPATLSLSPGERATLSCRASQSVSSYLAWYQQKPGQAPRLLIYHASSRATGIPDRFSGSGSGTDFTLTISRLEPEDFAVYYCQQYDNWPYTFGQGTKLEIK	4.29
E35-scFv LG50C (scFv, V domains shown) VH: QMQLVQSGAEVKKPGASVKVSCKVSGYTLTELSIHWVRQAPGKGLEWMGGFDPEDGETIYAQKFQGRVTMTGDTSTDTAYLELSSLRSEDTALYYCATGRYTSLATTYGFDYWGQGTLVTVSS VL: EIVMTQSPATLSLSPGERATLSCRASQSVSSYLAWYQQKPGQAPRLLIYCASSRATGIPDRFSGSGSGTDFTLTISRLEPEDFAVYYCQQYDNWPYTFGQGTKLEIK	25.7
E35-scFv LG50E (scFv, V domains shown) VH: QMQLVQSGAEVKKPGASVKVSCKVSGYTLTELSIHWVRQAPGKGLEWMGGFDPEDGETIYAQKFQGRVTMTGDTSTDTAYLELSSLRSEDTALYYCATGRYTSLATTYGFDYWGQGTLVTVSS VL: EIVMTQSPATLSLSPGERATLSCRASQSVSSYLAWYQQKPGQAPRLLIYEASSRATGIPDRFSGSGSGTDFTLTISRLEPEDFAVYYCQQYDNWPYTFGQGTKLEIK	29.9
E35-scFv LG50Y (scFv, V domains shown) VH: QMQLVQSGAEVKKPGASVKVSCKVSGYTLTELSIHWVRQAPGKGLEWMGGFDPEDGETIYAQKFQGRVTMTGDTSTDTAYLELSSLRSEDTALYYCATGRYTSLATTYGFDYWGQGTLVTVSS VL: EIVMTQSPATLSLSPGERATLSCRASQSVSSYLAWYQQKPGQAPRLLIYYASSRATGIPDRFSGSGSGTDFTLTISRLEPEDFAVYYCQQYDNWPYTFGQGTKLEIK	32
E35-scFv LD92A (scFv, V domains shown) VH: QMQLVQSGAEVKKPGASVKVSCKVSGYTLTELSIHWVRQAPGKGLEWMGGFDPEDGETIYAQKFQGRVTMTGDTSTDTAYLELSSLRSEDTALYYCATGRYTSLATTYGFDYWGQGTLVTVSS VL: EIVMTQSPATLSLSPGERATLSCRASQSVSSYLAWYQQKPGQAPRLLIYGASSRATGIPDRFSGSGSGTDFTLTISRLEPEDFAVYYCQQYANWPYTFGQGTKLEIK	0.282
E35-scFv LD92Q (scFv, V domains shown) VH: QMQLVQSGAEVKKPGASVKVSCKVSGYTLTELSIHWVRQAPGKGLEWMGGFDPEDGETIYAQKFQGRVTMTGDTSTDTAYLELSSLRSEDTALYYCATGRYTSLATTYGFDYWGQGTLVTVSS VL: EIVMTQSPATLSLSPGERATLSCRASQSVSSYLAWYQQKPGQAPRLLIYGASSRATGIPDRFSGSGSGTDFTLTISRLEPEDFAVYYCQQYQNWPYTFGQGTKLEIK	0.328
E35-scFv LD92W (scFv, V domains shown) VH: QMQLVQSGAEVKKPGASVKVSCKVSGYTLTELSIHWVRQAPGKGLEWMGGFDPEDGETIYAQKFQGRVTMTGDTSTDTAYLELSSLRSEDTALYYCATGRYTSLATTYGFDYWGQGTLVTVSS VL: EIVMTQSPATLSLSPGERATLSCRASQSVSSYLAWYQQKPGQAPRLLIYGASSRATGIPDRFSGSGSGTDFTLTISRLEPEDFAVYYCQQYWNWPYTFGQGTKLEIK	0.342
E35-scFv LD92V (scFv, V domains shown) VH: QMQLVQSGAEVKKPGASVKVSCKVSGYTLTELSIHWVRQAPGKGLEWMGGFDPEDGETIYAQKFQGRVTMTGDTSTDTAYLELSSLRSEDTALYYCATGRYTSLATTYGFDYWGQGTLVTVSS VL: EIVMTQSPATLSLSPGERATLSCRASQSVSSYLAWYQQKPGQAPRLLIYGASSRATGIPDRFSGSGSGTDFTLTISRLEPEDFAVYYCQQYVNWPYTFGQGTKLEIK	0.387
E35-scFv LD92L (scFv, V domains shown) VH: QMQLVQSGAEVKKPGASVKVSCKVSGYTLTELSIHWVRQAPGKGLEWMGGFDPEDGETIYAQKFQGRVTMTGDTSTDTAYLELSSLRSEDTALYYCATGRYTSLATTYGFDYWGQGTLVTVSS VL: EIVMTQSPATLSLSPGERATLSCRASQSVSSYLAWYQQKPGQAPRLLIYGASSRATGIPDRFSGSGSGTDFTLTISRLEPEDFAVYYCQQYLNWPYTFGQGTKLEIK	0.42
E35-scFv LD92T (scFv, V domains shown) VH: QMQLVQSGAEVKKPGASVKVSCKVSGYTLTELSIHWVRQAPGKGLEWMGGFDPEDGETIYAQKFQGRVTMTGDTSTDTAYLELSSLRSEDTALYYCATGRYTSLATTYGFDYWGQGTLVTVSS VL: EIVMTQSPATLSLSPGERATLSCRASQSVSSYLAWYQQKPGQAPRLLIYGASSRATGIPDRFSGSGSGTDFTLTISRLEPEDFAVYYCQQYTNWPYTFGQGTKLEIK	0.494
E35-scFv LD92R (scFv, V domains shown) VH: QMQLVQSGAEVKKPGASVKVSCKVSGYTLTELSIHWVRQAPGKGLEWMGGFDPEDGETIYAQKFQGRVTMTGDTSTDTAYLELSSLRSEDTALYYCATGRYTSLATTYGFDYWGQGTLVTVSS VL: EIVMTQSPATLSLSPGERATLSCRASQSVSSYLAWYQQKPGQAPRLLIYGASSRATGIPDRFSGSGSGTDFTLTISRLEPEDFAVYYCQQYRNWPYTFGQGTKLEIK	0.495
E35-scFv LD92M (scFv, V domains shown) VH: QMQLVQSGAEVKKPGASVKVSCKVSGYTLTELSIHWVRQAPGKGLEWMGGFDPEDGETIYAQKFQGRVTMTGDTSTDTAYLELSSLRSEDTALYYCATGRYTSLATTYGFDYWGQGTLVTVSS VL: EIVMTQSPATLSLSPGERATLSCRASQSVSSYLAWYQQKPGQAPRLLIYGASSRATGIPDRFSGSGSGTDFTLTISRLEPEDFAVYYCQQYMNWPYTFGQGTKLEIK	0.507
E35-scFv LD92G (scFv, V domains shown) VH: QMQLVQSGAEVKKPGASVKVSCKVSGYTLTELSIHWVRQAPGKGLEWMGGFDPEDGETIYAQKFQGRVTMTGDTSTDTAYLELSSLRSEDTALYYCATGRYTSLATTYGFDYWGQGTLVTVSS VL: EIVMTQSPATLSLSPGERATLSCRASQSVSSYLAWYQQKPGQAPRLLIYGASSRATGIPDRFSGSGSGTDFTLTISRLEPEDFAVYYCQQYGNWPYTFGQGTKLEIK	0.522
E35-scFv LD92H (scFv, V domains shown) VH: QMQLVQSGAEVKKPGASVKVSCKVSGYTLTELSIHWVRQAPGKGLEWMGGFDPEDGETIYAQKFQGRVTMTGDTSTDTAYLELSSLRSEDTALYYCATGRYTSLATTYGFDYWGQGTLVTVSS VL: EIVMTQSPATLSLSPGERATLSCRASQSVSSYLAWYQQKPGQAPRLLIYGASSRATGIPDRFSGSGSGTDFTLTISRLEPEDFAVYYCQQYHNWPYTFGQGTKLEIK	0.53
E35-scFv HE31N (scFv, V domains shown) VH: QMQLVQSGAEVKKPGASVKVSCKVSGYTLTNLSIHWVRQAPGKGLEWMGGFDPEDGETIYAQKFQGRVTMTGDTSTDTAYLELSSLRSEDTALYYCATGRYTSLATTYGFDYWGQGTLVTVSS VL: EIVMTQSPATLSLSPGERATLSCRASQSVSSYLAWYQQKPGQAPRLLIYGASSRATGIPDRFSGSGSGTDFTLTISRLEPEDFAVYYCQQYDNWPYTFGQGTKLEIK	0.11
E35-scFv LD92I (scFv, V domains shown) VH: QMQLVQSGAEVKKPGASVKVSCKVSGYTLTELSIHWVRQAPGKGLEWMGGFDPEDGETIYAQKFQGRVTMTGDTSTDTAYLELSSLRSEDTALYYCATGRYTSLATTYGFDYWGQGTLVTVSS VL: EIVMTQSPATLSLSPGERATLSCRASQSVSSYLAWYQQKPGQAPRLLIYGASSRATGIPDRFSGSGSGTDFTLTISRLEPEDFAVYYCQQYINWPYTFGQGTKLEIK	0.597
